Test results as given in patent US20110039770A1, “INHIBITORS OF PROTEIN KINASE C ISOFORMS AND USES THEREOF” (PHARMAGAP INC., priority 2005, published 2011).

Tests used:
Assay in all cases: ELISA-based competitive binding assay with purified PKC isoform
PKC-βI = PKC-βI (Homo sapiens, UniProt P05771); design: key to Affinity for PKC isoform βI: —: no detectable affinity; Low to very low affinity at 10X or 20X or both PRE concentrations in at least one cell line in the cell extract assay; Low affinity in purified isoform assay.; Moderate affinity at 10X or 20X or both PRE concentrations in at least one cell line in the cell extract assay.; High affinity at 10X or 20X or both PRE concentrations in at least one cell line in the cell extract assay; High affinity in purified isoform assay; settings: Purified isoform
Sequence of PKC-βI (P05771 whole entry, canonical isoform): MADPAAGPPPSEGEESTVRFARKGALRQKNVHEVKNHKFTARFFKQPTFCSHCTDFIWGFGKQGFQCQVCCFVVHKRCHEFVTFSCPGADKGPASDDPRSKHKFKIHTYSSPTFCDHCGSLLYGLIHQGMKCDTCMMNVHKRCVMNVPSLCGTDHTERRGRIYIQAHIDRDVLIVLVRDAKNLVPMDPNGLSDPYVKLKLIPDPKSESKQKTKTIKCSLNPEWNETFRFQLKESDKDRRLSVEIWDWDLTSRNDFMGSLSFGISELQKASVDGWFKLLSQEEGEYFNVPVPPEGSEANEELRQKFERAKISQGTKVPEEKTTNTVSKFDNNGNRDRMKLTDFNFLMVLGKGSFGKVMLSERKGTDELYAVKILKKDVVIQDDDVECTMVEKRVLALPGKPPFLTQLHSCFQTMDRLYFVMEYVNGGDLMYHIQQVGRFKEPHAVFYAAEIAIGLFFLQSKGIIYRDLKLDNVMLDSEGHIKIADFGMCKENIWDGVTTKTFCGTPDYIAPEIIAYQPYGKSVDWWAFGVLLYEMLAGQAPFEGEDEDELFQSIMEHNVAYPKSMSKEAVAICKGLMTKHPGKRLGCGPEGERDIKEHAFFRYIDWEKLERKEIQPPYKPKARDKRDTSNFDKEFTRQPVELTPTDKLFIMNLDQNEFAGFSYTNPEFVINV
Experimental: (§1) Peptides PRE 1, 2, 3, 4, 5, 6, 7, 8, 9, 10, 11, 12 and 13 (see Table 3) were tested for their ability to interfere with binding of PKC isoform-specific antibodies to their target PKC isoforms using a competitive binding assay and purified PKC isoforms.
(§2) Procedure: Competitive binding was assessed using a 96 well plate ELISA-based assay as described below.
(§3) Greiner 96 well ELISA plates were coated with the appropriate PKC isoform diluted in PBSN (PBS with Calcium/Magnesium+0.05% Sodium azide w/w). 50 μL/well at 250 ng/mL was used. Control wells contained PBSN only. Plates were incubated overnight at 4° C.
(§4) The plates were washed 3 times with 200 μL of dH2O per well, then 100 μL of blocking solution was added per well and the plate incubated for 1 h at 37° C. The washing steps with dH2O were repeated and 50 μL of the appropriate PRE solution (PRE stock solution [20 mM in DMSO] diluted in PBSN) was added and the plate incubated for 1 h at room temperature.
(§5) After incubation, 5 μL of 1.1:400 anti-PKC (isoform specific antibody) was added per well (to provide a final concentration of 1:4000). For PKC-epsilon, 1.1:800 dilution was used and for PKC-zeta a 1.1:100 dilution was used due to high and low binding affinity, respectively. The plates were then incubated 1 h at room temperature, followed by washing with dH2O as described above.
(§6) 50 μL of 1:1000 dilution of Alkaline Phosphatase (AP) conjugated antibody (anti-rabbit for all except zeta, which was anti-goat) was then added and the plate incubated for 1 h at room temperature. Washing with dH2O was then repeated. Finally, 100 μL of pNPP solution in pNPP buffer (2 mM MgCl2, 100 mM Sodium bicarbonate in water, pH 9.8) was added to all wells and incubated for 8 minutes for α, βI, βII ε, and ζ, or for 15-20 mins for δ (until sufficient coloration is observed). The reaction was stopped by addition of Stop solution (2N NaOH) and the absorbance at 405 nm was read on a Galaxy Plate reader.
(§7) Controls were PKC without PRE; blank controls, and controls containing the final concentrations of DMSO used for solubilizing the PREs. The non-specific binding capacity related to DMSO was also measured.
(§8) The antibodies used were as follows: anti-PKC α (Cat. No. SC-208); anti-PKC βI (Cat. No. SC-209); anti-PKC βII (Cat. No. SC-210); anti-PKC δ (Cat. No. SC-213); anti-PKC ε (Cat. No. SC-214); anti-PKC ζ (Cat. No. SC-216-G) (all from Santa Cruz Biotechnology, Inc.). The AP-conjugated antibodies were obtained from Jackson Immuno Research Laboratories (West Grove, Pa.).
(§9) Calculations: The OD values measured at 405 nm represent the free PKC coated per well.
(§10) OD405 PKC alone−Blank OD405 of each sample=OD405 coated isoform
(§11) (OD405 of sample X/OD405 coated isoform)×100=% n that represents the percentage of X binding compared to control.
(§12) 100-% n measures the relative binding capacity of X towards the tested isoform.
(§13) The apparent binding capacity of the DMSO samples was then subtracted from X binding capacity.
(§14) All measurements were made in triplicate and the values in the table represent the averaged calculated binding capacity values after subtraction of the DMSO apparent binding capacity (averaged from 12 values, respectively 10.80, 11.20 and 16.40 corresponding to the concentrations of DMSO used to dilute the […] at 200, 100 and 50 μM respectively). The results allow for quantitative comparison of the binding capacity of each PRE towards an individual isoform within each table, but not among isoforms due to differences in sensitivity of the specific antibodies toward the secondary antibody. This applies particularly to PKC-delta. As noted above, the colour development duration was increased 2-3 times and, as a result, the OD405 measurements may be overestimated for this isoform.

PKC-βII = PKC-βII (Homo sapiens, UniProt P05771); design: key to Affinity for PKC isoform βII: —: no detectable affinity; Low to very low affinity at 10X or 20X or both PRE concentrations in at least one cell line in the cell extract assay; Low affinity in purified isoform assay.; Moderate affinity at 10X or 20X or both PRE concentrations in at least one cell line in the cell extract assay.; High affinity at 10X or 20X or both PRE concentrations in at least one cell line in the cell extract assay; High affinity in purified isoform assay; settings: Purified isoform
Sequence of PKC-βII (P05771 1-673 isoform P05771-2): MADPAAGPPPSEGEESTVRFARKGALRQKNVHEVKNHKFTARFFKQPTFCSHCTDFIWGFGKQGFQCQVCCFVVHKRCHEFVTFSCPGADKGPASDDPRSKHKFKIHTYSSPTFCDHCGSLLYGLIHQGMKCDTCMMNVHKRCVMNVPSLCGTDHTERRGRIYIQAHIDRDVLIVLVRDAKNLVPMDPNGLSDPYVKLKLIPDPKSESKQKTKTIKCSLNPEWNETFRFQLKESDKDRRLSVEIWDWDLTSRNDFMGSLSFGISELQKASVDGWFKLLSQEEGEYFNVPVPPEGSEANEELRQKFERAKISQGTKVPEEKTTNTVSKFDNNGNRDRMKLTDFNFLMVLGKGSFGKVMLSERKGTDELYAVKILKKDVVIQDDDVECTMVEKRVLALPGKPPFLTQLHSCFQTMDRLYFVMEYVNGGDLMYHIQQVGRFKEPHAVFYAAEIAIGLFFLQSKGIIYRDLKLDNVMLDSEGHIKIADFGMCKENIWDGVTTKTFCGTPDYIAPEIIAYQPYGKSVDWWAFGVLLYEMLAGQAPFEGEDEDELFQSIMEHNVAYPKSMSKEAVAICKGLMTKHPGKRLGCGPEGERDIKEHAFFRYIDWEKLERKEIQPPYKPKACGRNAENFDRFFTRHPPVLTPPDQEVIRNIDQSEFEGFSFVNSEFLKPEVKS
Experimental: as §1, §2, §3, §4, §5, §6, §7, §8, §9, §10, §11, §12, §13, §14

PKC-ζ = biological target: T1, PKC-ζ (Homo sapiens, UniProt Q05513); design: key to Affinity for PKC isoform ζ: —: no detectable affinity; Low to very low affinity at 10X or 20X or both PRE concentrations in at least one cell line in the cell extract assay; Low affinity in purified isoform assay.; Moderate affinity at 10X or 20X or both PRE concentrations in at least one cell line in the cell extract assay.; High affinity at 10X or 20X or both PRE concentrations in at least one cell line in the cell extract assay; High affinity in purified isoform assay
T1 sequence (Q05513 1-592): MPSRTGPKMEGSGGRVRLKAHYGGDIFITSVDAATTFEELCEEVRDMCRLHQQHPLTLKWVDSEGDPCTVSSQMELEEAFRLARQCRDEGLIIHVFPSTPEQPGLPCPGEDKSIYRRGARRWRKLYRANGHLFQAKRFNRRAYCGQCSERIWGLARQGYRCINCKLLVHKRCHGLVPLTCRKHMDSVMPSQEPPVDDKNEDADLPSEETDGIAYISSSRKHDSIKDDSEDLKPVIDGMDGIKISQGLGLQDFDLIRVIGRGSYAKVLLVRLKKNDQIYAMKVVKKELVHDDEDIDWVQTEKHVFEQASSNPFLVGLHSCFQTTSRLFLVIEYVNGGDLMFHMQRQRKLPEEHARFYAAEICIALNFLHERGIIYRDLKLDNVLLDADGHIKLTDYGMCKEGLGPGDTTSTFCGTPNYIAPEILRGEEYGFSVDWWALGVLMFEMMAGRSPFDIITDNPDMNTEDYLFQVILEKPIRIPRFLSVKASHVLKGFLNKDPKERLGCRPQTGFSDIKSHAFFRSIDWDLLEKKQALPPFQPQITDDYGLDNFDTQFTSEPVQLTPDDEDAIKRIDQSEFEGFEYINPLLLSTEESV
Experimental: as §1, §2, §3, §4, §5, §6, §7, §8, §9, §10, §11, §12, §13, §14

## RRKKGGKDFVVKR [PRE 1]
PKC-βI
  Affinity for PKC isoform βI: H
PKC-βII
  Affinity for PKC isoform βII: —
PKC-ζ; PRE 50 μM, purified PKC-ζ
  calculated binding capacity (100-% n, DMSO apparent binding subtracted): 4.11%
PKC-ζ; Purified isoform
  Affinity for PKC isoform ζ: —
